In US20120053121A1:

Biological target: EGF receptor (EGFR) on PC12 cells
Assay: cell-based or functional assay

percentage of PC12 cells with neurite outgrowth after 3 days, HB-EGF treated: 87.8%
rate of neurite extension induced by HB-EGF in PC12 cells in the presence of AG1478 (EGF receptor kinase inhibitor): 24.3%
Substance: GMP-grade human mature HB-EGF produced in P. pastoris yeast (from UniProt Q99075 63-148) (ligand)
